Source: patent US20250326817A1 (LA JOLLA INSTITUTE FOR IMMUNOLOGY, published 2025)

B1: mouse BTLA, soluble protein (analyte of the Octet assay) (receptor, UniProt Q7TSA3 30-183, looked up)
chain: EKATKRNDEECPVQLTITRNSKQSARTGELFKIQCPVKYCVHRPNVTWCKHNGTICVPLEVSPQLYTSWEENQSVPVFVLHFKPIHLSDNGSYSCSTNFNSQVINSHSVTIHVRERTQNSSEHPLITVSDIPDATNASGPSTMEERPGRTWLLY
notes: The construct is not described; also called mBTLA; mBTLA-penta-His-tag
B4: mouse CD160 residues I30-H154 with C-terminal HHHHHHGGGGSGLNDIFEAQKIEWHE, refolded from E. coli inclusion bodies (receptor)
chain: IHVTSSASQKGGRLDLTCTLWHKKDEAEGLILFWCKDNPWNCSPETNLEQLRVKRDPETDGITEKSSQLVFTIEQATPSDSGTYQCCARSQKPEIYIHGHFLSVLVTGNHTEIRQRQRSHPDFSHHHHHHHGGGGSGLNDIFEAQKIEWHE
modifications: biotin (mCD160-biotin in the cell staining assay; site not stated)
notes: range 30-154; also called mCD160; mCD160-biotin

Assays:
[1] = biological target: T1, mouse HVEM (Q39-Q206), wild type, fused to human IgG1 and a hexa-His tag (mouse; human, UniProt Q80WM9 39-206); assay: Octet bio-layer interferometry, mHVEM-hIgG1 on the sensor, mBTLA in solution
T1 construct: From Expi293 cells; also called mHVEM-hIgG1; mHVEMWT; not shown: human IgG1
Description: (§1) Error bars represent results from at least triplicates. […] Ligands BTLA, CD160 and LIGHT are modeled based on the HVEM structures and are shown as labeled surfaces.
(§2) The results were exported and then analyzed using Prism 5 (GraphPad Software). Final response curves were generated after subtracting the responses of the control groups.

[2] = biological target: T1, mouse HVEM (Q39-Q206), wild type, fused …; assay: Octet bio-layer interferometry, mHVEM-hIgG1 on the sensor, BTLA in solution
Description: as §2

[3] = biological target: B1; assay: Octet bio-layer interferometry, mHVEM-hIgG1 on the sensor, mBTLA in solution
Description: as §1, §2

[4] = biological target: T2, single chain homotrimeric mouse LIGHT extracellular domain (G73-V239), N-terminal HHHHHHGG, joined by two … (mouse, UniProt Q9QYH9 73-239); assay: Octet bio-layer interferometry, mHVEM-hIgG1 on the sensor, mLIGHT in solution
T2 construct: Soluble analyte of the Octet assay; from Expi293 cells; also called mLIGHT
T2 sequence: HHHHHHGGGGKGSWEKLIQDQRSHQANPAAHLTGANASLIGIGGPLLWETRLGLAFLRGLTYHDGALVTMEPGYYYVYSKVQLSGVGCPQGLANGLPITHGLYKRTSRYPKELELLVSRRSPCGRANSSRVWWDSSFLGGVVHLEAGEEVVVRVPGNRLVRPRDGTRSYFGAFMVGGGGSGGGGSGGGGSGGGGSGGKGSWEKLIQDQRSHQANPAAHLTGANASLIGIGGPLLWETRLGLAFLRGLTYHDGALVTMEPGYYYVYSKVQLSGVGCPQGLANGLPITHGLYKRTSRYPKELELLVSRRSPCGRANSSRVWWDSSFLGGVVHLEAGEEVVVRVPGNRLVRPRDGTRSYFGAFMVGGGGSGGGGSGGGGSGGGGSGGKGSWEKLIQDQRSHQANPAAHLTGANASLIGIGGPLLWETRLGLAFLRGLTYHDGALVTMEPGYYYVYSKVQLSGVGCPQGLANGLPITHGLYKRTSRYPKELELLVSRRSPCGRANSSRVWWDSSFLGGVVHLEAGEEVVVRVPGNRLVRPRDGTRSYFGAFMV
Description: as §1, §2

[5] = biological target: T2, single chain homotrimeric mouse LIGHT …; assay: Octet bio-layer interferometry, mHVEM-hIgG1 on the sensor, LIGHT in solution
Description: as §2

[6] = biological target: B4; assay: Octet bio-layer interferometry, mHVEM-hIgG1 on the sensor, mCD160 in solution
Description: as §1, §2

[7] = biological target: B4; assay: Octet bio-layer interferometry, mHVEM-hIgG1 on the sensor, CD160 in solution
Description: as §2

[8] = biological target: B1; assay: Octet bio-layer interferometry, mHVEM-hIgG1 on the sensor, BTLA in solution
Description: as §2

[9] = biological target: B4; assay: Octet BLI, mHVEM-hIgG1 immobilised (text says surface plasmon resonance)
Description: as §2

[10] = biological target: T2, single chain homotrimeric mouse LIGHT …; assay: as above
Description: as §2

[11] = biological target: B1; assay: as above
Description: as §2

[12] = biological target: T1, mouse HVEM (Q39-Q206), wild type, fused …; assay: Octet bio-layer interferometry, mHVEM-hIgG1 on the sensor, CD160 in solution
Description: as §2

[13] = biological target: T1, mouse HVEM (Q39-Q206), wild type, fused …; assay: Octet bio-layer interferometry, mHVEM-hIgG1 on the sensor, mCD160 in solution
Description: as §1, §2

With B1 the Kd [1] was 1.1 µM and the Kd [2] was 1.1 µM.

B2: mouse HVEM (Q39-Q206) G72R-V74A fused to human IgG1 and a hexa-His tag, soluble form (Fc fusion)
chain (part 1 of 2): QPSCRQEEFLVGDECCPMCNPGYHVKQVCSEHTRTACAPCPPQTYTAHANGLSKCLPCGVCDPDMGLLTWQECSSWKDTVCRCIPGYFCENQDGSHCSTCLQHTTCPPGQRVEKRGTHDQDTVCADCLTGTFSLGGTQEECLPWTNCSAFQQEVRRGTNSTDTTCSSQ
chain (part 2 of 2): HHHHHH
notes: also called mHVEM^-BT/160; mHVEM-BT/160; not shown: human IgG1
In the case of B2, the binding result [3] is reported as “no binding”, the Kd [4] is reported as 0.0293 µM and the Kd [5] is reported as 0.0293 µM. B2: no binding [6].

B3: mouse HVEM (Q39-Q206) H86D-L90A fused to human IgG1 and a hexa-His tag, soluble form (Fc fusion)
chain (part 1 of 2): QPSCRQEEFLVGDECCPMCNPGYHVKQVCSEHTGTVCAPCPPQTYTADANGASKCLPCGVCDPDMGLLTWQECSSWKDTVCRCIPGYFCENQDGSHCSTCLQHTTCPPGQRVEKRGTHDQDTVCADCLTGTFSLGGTQEECLPWTNCSAFQQEVRRGTNSTDTTCSSQ
chain (part 2 of 2): HHHHHH
notes: also called mHVEM^-LIGHT; mHVEM-LIGHT; not shown: human IgG1
B3 showed a Kd [7] of 33.5 µM, a Kd [3] of 5.3 µM and a Kd [8] of 5.3 µM. For the same binder, the Kd [4] was 31.7 µM, the Kd [5] was 31.7 µM and the Kd [6] was 33.5 µM. The “fold reduction of binding against wild-type mHVEM” value [9] was ~3 fold, the “log-fold decrease in binding against wild-type mHVEM” value [10] was > 3 log-fold and the “fold reduction of binding against wild-type mHVEM” value [11] was ~5 fold.

In the case of B4, the Kd [12] is reported as 11.6 µM and the Kd [13] is reported as 11.6 µM.
